# Assay: yeast display, Sf9 membrane polyspecificity reagent, FACS + sequencing; frameworks hold sequencing errors
# Outline: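 Galactose-induced (36–48 hours) yeast carrying a synthetic nanobody display library were exposed to 10% biotinylated, detergent-solubilized Sf9 membrane reagent at 4 °C for 1 hour. FACS followed streptavidin microbead enrichment, using low and high (top ~1%) gates for expression (anti-HA) and reagent binding (streptavidin). Colony PCR, MiSeq 2 × 250 sequencing and CDR-length filtering followed. Labels for polyreactivity reflect the gate of origin.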
row,Sequence,polyreactivity (PSR sort gate)
1,QVQHVESGGGLVQAGGSLRLSCAASGRIFALYAMGWYRQAPGKERELVAAITSGSTYYADSVKGRFTISRDNAKNTVYLQMNSLKPEDTAVYYCAADLSYWRGGHSRNYWGQGTQVTVSS,low polyreactivity
2,QVQLVESGGGLVQAGGSLRLSCGASGSIFPHYAMGWYRQAPGKEREFVSTISGSTGRTYYADSVKGRFTISRDNAKNTVYLQMNSLKPEDTAVYYCATSVGYYLPPIKYDYWGQGTQVTVSS,low polyreactivity
3,QVQLVESGGGLVQAGGSLRLSCAASGLTFGGYAMGWYRQAPGKERELVAAISRSGGSTYYADSVKGRFTISRDNAKNTVYLQMNSLKPEDTAVYYCAAVLSVRVYGYDYWGQGTQVTVSS,low polyreactivity
4,QVQLGESGGGLVQAGGSLRLSCAASGSTLYPYAMGWNRQATGTERELFAAISWSGTRTYYADSVKGRFTISRDNAKNTVYLQMNSLKQEDTAVYYCAKSRTRYPSNTKYDYWGQGTQVTVSS,high polyreactivity
5,QVQLQGSGGGLVQAAGSLRLSCAASGYIFQNVPMGWNRQAPGKERELVAGIDNGTSTNYADSVNGRFTISRDNAKKTVYLQMNSLKPEDTAVYYCAAAGQADDTLGYWGQGTQVTVSR,low polyreactivity
6,QVQLVESGGGLVQAGGSLRLSCAASGGTFKTNAMGWYRQAPGKERELVAAITGSGTSTYYADSVKGRFTISRDNAKYTVYLQMNSLKPEDTAVYYCAADKLYQPGIGDDYWGQGTQVTVSS,low polyreactivity
7,QVQLVESGGGLVQAGGSLRLSCAASGSTFSANTMGWYRQAPGKERELVAAISSSGVGTRYADSVKGRFTISRDNAKNTVYLQMNSLKPEDTAVYYCNADLYGGGDKSVISGLNGEYEYWGQGTQVTVSS,low polyreactivity
8,QVQLVESGGGLVQAGGSLRLSCAASGRIFQGYAMGWYRQAPGKERELVAAITRSGGSTYYADSVKGRFTISRDNAKNTVYLQMNSLKPEDTAVYYCAASHYGLLEYWGQGTQVTVSS,low polyreactivity
9,QVQLVESGGGLVQAGGSLRLSCAASGRTFRIYAMGWYRQAPGKERELVAAINSGGTTNYADSVKGRFTISRDNAKNTVYLQMISLKPEDTAVYYCAVRYSKTLSHFSYDYWGQGTQLTVSS,low polyreactivity
10,QVQLVESGGGLVQAGGSLRLSCAASGSTFLNYVMGWYRQAPGKERELVATINSGDSTTYADSVKGRFTISRDNAKNTVYLQMNSLKPEDTAVYYCNADPYYYSTYWSVKYDYWGQGTQVTVSS,low polyreactivity
11,QVQLVESGGGLVQAGGSHRLSCAASGSIFYVNAMGWYRQSPGKERELVAAINRGGVSTYYADSVKGRFTISRDNAKNTVYLLMNSLKPEDTAVYYCATDFYLSTYSHYVWLYGYEFYYWGQGTQVTVSS,low polyreactivity
12,QVQLVESGGGLVQAGGSLRLSCAASGRILGYYGMGWYIQAPGKERELVAAITSGGGSTYYADSVKGRFTISRDNAKNTVYLQMNSLKPEDTAVYYCNAVPSQHDEFDYWGQGTQVTVSS,low polyreactivity
13,QVHLVESGGGLVQAGGSLRLSCAASGFIFISNSMGCYRQEPGKERELVARISDTDRTHYADSVKGRFTISRDNAKNTVYLQMNSQNPEDTAVYSCATDQSLLDKVYYDVQYDFWGQGTQVTVSS,low polyreactivity
14,QVQLVESGGGLVQAGGSLRLSCAASGFIFSHYTMGWYRQAPGKERELVAGISWSGGNTYYADSVKGRFTISRDNAKNTVYLQMISLKPEDTAVYYCNADWIGVPLAYDYWGQGTQVTVSS,low polyreactivity
15,QVQLVESGGGLVQAGGSLRLSCAASGRTIYYYAMGLYRQAPGKERELVAAISSSGSTTYYADSVKGRFTISRDNAKNTVYLQMNSLKPEDTAVYYCAASYVYRVDDDYWGLGTQVTVSS,low polyreactivity
16,QVQLVESGGGLVQAGGSLRLSCAASGLTFWGYAMGWYRQAPGKEREFVASISSGGGSTYYADSVKGRFTISRDNAKNTVYLQMNSLKPEDTAVYYCNVDVHLYLYKSYTYRYYYWGQGTQVTVSS,low polyreactivity

row,Sequence,polyreactivity (PSR sort gate)
1,QVQLQESGGGLVQAGGSLRLSCAASGTISQEDWMGWYRQAPGKEREFVAAIGLGSNTNYADSLKGRFTMSRDNAKNTVYLQMNSLKPEDTAVYYCAVSVWQYSDHVYRGQGTQVTVSS,low polyreactivity
2,QVQLVESGGGLVQAGGSHRLSCAASGRTFWYTMGWYRQAPGKERELVAAITWSGGSTYYADSVKGRFTISRDNAMNTVYLQMNSLNPEDTAVYYWNAADYQLWFGYDYWGQGTQVTVSS,low polyreactivity
3,QVQLVESCGGLVQAGGSLRLSCAASGIIFEGNTLGWYRQAPGKEREFVAAISRNGGSTSYADSVKGRFTISRDNAKNTVYLQINSLKPEDTAVYYCAADVESFWGWRYEYWGQGTQVTVSS,low polyreactivity
4,QVQLVESGGGLVQAGGSLRLSCAASGSTFSSYAMGWYRQAPGKERELVAAITYSGGSTYYADSVKGRFTISRDNAKNTVYLQMNSLKPEDTAVYYCATRSLFWSFTYYYWGQGTQVTVSS,low polyreactivity
5,QVQLVESGGGLVQAGGSLRVSCAASGRTFGIYAMGWYRQAPGKEREFVAAISWSGTSTHYADSVKGRFTISRDNAKNTFYLQMNSLKPEDTAVYYCATRRSHYGKYDYWGQGTQVTVSS,high polyreactivity
6,QVQLVESGGGLVQAGGSLRLSCAASGSIFGSYAMGWYRQATGNERELVAAIRSSASTYYADSVKGRFTISRDNAKNTVYLQMYSLKPEDTAVYYCAAKFTSYGRSRYYSWGQGTQVTVSS,high polyreactivity
7,QVQLVESGGGLVQAGGSLRLSCAASGRIFYDYAMGWYRQAPGKERELVAAISGSGGSTYYADSVKGRFTISRDNAKNTVYLQMNSLKPEDTAVYYCNRYTTRYYPGGDYWGQGTQVTVSS,high polyreactivity
8,QVQLVESGGGLVQAGGSLRLSCAASGRTFLIYAMGWYRQAPGKERELVAAITNGVDSTYYADSVKGRFTISRDNAKNTVYLQMNSLKPEDTAVYYCNADTVVEWYSPSREYDYWGQGTQVTVSS,low polyreactivity
9,QVQLVESGGGLVQAGGSLRLSCAASGFTFGSYAMGWYRQAPGKERELVAAITASGGSTYYADSVKGRFTISRDNPKNTVYLQMNSLKPEDTAVYYCNKRWTYKWDDYWGQGTQVTVSS,high polyreactivity
10,QVQLVESGGGLVQAGGSLRLSCAASGSIFSTYAMGWYRQAPGKERELVAAISSSSGSTYYADSVKGRFTISRDNAKNTVYLQMNSLKPEDTAVYYCAAAYSQYSTSYYYWGQGTQVTVSS,high polyreactivity
11,QVQLVESGGGLVQAGGSLRLSCAASGSIFDGNALGWYRQAPGKERELVAAISYRGGSTYYADSVKGRFTISRDNAKNTVYLQMNSLKPEDTAVYYCAAGSISTPGRGVDKPDPYDYWGQGTQVTVSS,low polyreactivity
12,QVQLVESGGGLVQAGGSLRLSCAASGFTFYRYAMGWYRQAPGKERELVAAITSRSGITYYADSVKGRFTISRDNAKNTVYLQMNSLKPEDTAVYYCGAYVSRSTEFDYGYWGQGTQVTVSS,high polyreactivity
13,QVQLVESGGGLVQAGGTLRLSCAPSGSIFTFYAMGWYRQAPGKERELVAAITRSGGSTYYADSVKGRFTISRDNAKNTVYLQMNSLKPEDTAVYYCAKDPSSYVTYRYYYWGQGSQVTVSS,low polyreactivity
14,QVQLVESGGGLVQAGGSLRLSCAASGSTFYFNAMGWYRQAPGKERELVAVIDGSGGFTYDADSVKGRFTISRDNAKNTVYLQMNSLKPEDTAVYYCNADLVYNTFIYSGGDEYDYWGQGTQGTVSS,high polyreactivity
15,QVQLVESGGGLVQAGGSLRLSCAASGRIFNQYGMGWYRQAPGKERELVASITLTDGSTYYADSVKGRFTISRDNAKNTVYLQMNSLKPEDTAVYYCAARISGGSTFRYQRMYYWGQGTQVTVSS,low polyreactivity

# — the nanobody polyreactivity screen of Harvey et al. (2022)
